Source: patent publication US20220193237A1 (Bristol-Myers Squibb, published 2022)

What was measured:
[1] = biological target: T1, human CTLA-4 on 58 α-β-CTLA-4/CD3 ζ cells (human; mouse (mCD3ζ)); experiment: flow cytometry (GMFI), full-length IgG on 58 α-β-CTLA-4/CD3 ζ cells, pH 6.3
T1 construct: also called 58αβ-hCTLA4/mCD3ζ cells; 58αβ-CTLA4/mCD3ζ cells

[2] = biological target: T1, human CTLA-4 on 58 α-β-CTLA-4/CD3 ζ …; experiment: flow cytometry (GMFI), full-length IgG on 58 α-β-CTLA-4/CD3 ζ cells, pH 7.2
[3] = biological target: T1, human CTLA-4 on 58 α-β-CTLA-4/CD3 ζ …; experiment: flow cytometry (GMFI), full-length IgG on 58 α-β-CTLA-4/CD3 ζ cells, pH 6.6
monomeric human CTLA-4 [4] = biological target: T2, monomeric human CTLA-4 (human, UniProt P16410 36-161, limits assumed); experiment: SPR, captured Fab, pH 6.0 vs 7.4
T2 construct: Soluble monomeric analyte in SPR; also called huCTLA-4
T2 sequence: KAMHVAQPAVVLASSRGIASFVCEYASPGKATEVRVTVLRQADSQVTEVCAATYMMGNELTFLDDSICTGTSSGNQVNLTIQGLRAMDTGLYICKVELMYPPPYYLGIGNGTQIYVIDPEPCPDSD

monomeric human CTLA-4 [5] = biological target: T2, monomeric human CTLA-4; experiment: SPR, captured Fab, pH 7.4; pH 7.4
Procedure: (§1) Unless otherwise indicated, experiments were performed with a BIACORE® SPR surface plasmon resonance spectrometer (Biacore AB, Uppsala, Sweden). Antibodies were tested as monovalent Fab fragments to simplify analysis.
(§2) Monomeric human CTLA-4 was flowed as analyte with up to 2 μM top concentration. Between cycles, the capture surface was regenerated with 75 mM phosphoric acid. Experiments were run on a BIACORE® T200 instrument at 37° C. Running buffers were HEPES buffered saline for pH 7.4 experiments and Bis-Tris buffered saline for lower pH experiments. […] Double referenced sensorgrams were fitted to a 1:1 Langmuir binding model with mass transport to determine equilibrium dissociation constants (KD), as well as association (kₐ) and dissociation (kd) rate constants where appropriate.

monomeric human CTLA-4 [6] = biological target: T2, monomeric human CTLA-4; experiment: SPR, captured Fab, pH 6.0
[7] = biological target: T1, human CTLA-4 on 58 α-β-CTLA-4/CD3 ζ …; experiment: flow cytometry (APC mean FI), Fab on 58αβ-CTLA4/mCD3ζ cells, pH 6.7
Procedure: (§3) Antibodies were titrated from 100 μg/mL at a 1:4 dilution across 12 points in pH-specific buffers and incubated for 30-60 minutes. Buffers contained HBSS, 2% FBS^HI, 0.02% sodium azide, 2 mM EDTA, and sodium phosphate buffer (pH 5.4). Sodium phosphate buffer was added until desired pH was reached (7.2, 6.7, 6.2). Approximately 3e5 cells/well were tested for each cell line. […] Detection was done with a monovalent anti-hKappa secondary nanobody conjugated to Alexa647 and used at a dilution of 1:2000. Cells were fixed with BD Fix Solution I for 30 minutes prior to resuspension in pH-specific buffers and reading on the cytometer (BD Fortessa).
(§4) The experimental protocol was the same as used to obtain the data of FIGS. 16A-C.

monomeric cyno CTLA-4 [8] = biological target: T3, monomeric cyno CTLA-4 (cynomolgus macaque (Macaca fascicularis), UniProt G7PL88 36-161); experiment: SPR, Fab, monomeric cyno CTLA-4 as analyte; koff (s^-1, linear axis 0 to 0.3) plotted against pH
T3 construct: also called CTLA-4 from the cynomolgus macaque Macaca fascicularis
T3 sequence: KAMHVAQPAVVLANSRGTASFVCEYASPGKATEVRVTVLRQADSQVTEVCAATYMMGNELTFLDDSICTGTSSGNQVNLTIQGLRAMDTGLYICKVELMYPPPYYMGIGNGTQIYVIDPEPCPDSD
Procedure: (§5) The pH dependence of binding of selected antibodies of the present invention to human CTLA-4 and cyno CTLA-4 was measured by surface plasmon resonance (SPR) spectroscopy, essentially as described in Example 3. Briefly, antibodies were studied as monovalent Fab fragments. Anti-human kappa polyclonal capture antibody (Southern Biotech, Ala. USA) was immobilized on a ethylenediamine-blocked CM4 sensor chip in a Biacore T200 surface plasmon resonance system. Fab fragments of selected antibodies of the present invention were then captured on one flow cell each. […] Running buffer was 20 mM BisTris, 150 mM NaCl, 0.05% Tween-20, 1 g/L BSA, at a pH ranging from 5.5 to 7.4 in 0.1-0.2 pH unit intervals (12 total). The surface was regenerated with 1/200 H₃PO₄ between cycles. […] Where required, the Rₘₐₓ was fixed by calculating expected binding based on capture level and apparent activity from other fits for the same Fab.

monomeric human CTLA-4 [9] = biological target: T2, monomeric human CTLA-4; experiment: SPR, captured Fab, pH 7.4
[10] = biological target: T1, human CTLA-4 on 58 α-β-CTLA-4/CD3 ζ …; experiment: cell-based or functional assay
[11] = biological target: T1, human CTLA-4 on 58 α-β-CTLA-4/CD3 ζ …; experiment: flow cytometry, non-fucosylated IgG1 on 58αβ-CTLA4/mCD3ζ cells, pH 6.2
[12] = biological target: T1, human CTLA-4 on 58 α-β-CTLA-4/CD3 ζ …; experiment: flow cytometry, non-fucosylated IgG1 on 58αβ-CTLA4/mCD3ζ cells, pH 6.7
[13] = biological target: T1, human CTLA-4 on 58 α-β-CTLA-4/CD3 ζ …; experiment: cell-based or functional assay; remark: listed apart in the source
[14] = biological target: T1, human CTLA-4 on 58 α-β-CTLA-4/CD3 ζ …; experiment: cell-based or functional assay; remark: listed apart in the source
[15] = biological target: T1, human CTLA-4 on 58 α-β-CTLA-4/CD3 ζ …; experiment: flow cytometry, non-fucosylated IgG1 on 58αβ-CTLA4/mCD3ζ cells, pH 7.2
monomeric cyno CTLA-4 [16] = biological target: T3, monomeric cyno CTLA-4; experiment: SPR, Fab, monomeric cyno CTLA-4 as analyte; KD (M, log axis 10^-9 to 10^-5) plotted against pH
Procedure: as §5

monomeric human CTLA-4 [17] = biological target: T2, monomeric human CTLA-4; experiment: SPR, pH 6.0 and pH 7.5 (FIG. 6)
Procedure: as §1, §2

[18] = biological target: T1, human CTLA-4 on 58 α-β-CTLA-4/CD3 ζ …; experiment: flow cytometry (APC mean FI), Fab on 58αβ-CTLA4/mCD3ζ cells, pH 6.2
Procedure: as §3, §4

B1: ipi.71 (full-length IgG) (antibody, V domains shown)
VH: QVQLVESGGGVVQPGRSLRLSCAASGFTFSHYTMHWVRQAPGKGLEWVTFISYDGHNKYYADSVKGRFTISRDNSKNTLYLQMNSLRAEDTAIYYCARTGWLGPFDYWGQGTLVTVSS
VL: not shown
notes: Full-length bivalent IgG (human IgG1); heavy chain entry is without the C-terminal lysine
**Q.** Which “EC50 (read off the curve)” value [1] does the source give for B1 here?
**A.** ~1 nM

**Q.** What about the “EC50 (read off the curve)” value [2] of the same binder?
**A.** ~1 nM

**Q.** What about the “EC50 (read off the curve)” value [3] of the same binder?
**A.** ~1 nM

B2: ipi.90 Fab (Fab, V domains shown)
VH: QVQLVESGGGVVQPGRSLRLSCAASGFTFSHYTMHWVRQAPGKGLEWVTFISYDGNNKYYADSVKGRFTISRDNSKNTLYLQMNSLRAEDTAIYYCARHGWLGPFDYWGQGTLVTVSS
VL: EIVLTQSPGTLSLSPGERATLSCRASQEVGDSELAWYQQKPGQAPRLLIYGAFSRATGIPDRFSGSGSGTDFTLTISRLEPEDFAVYYCQQYGSSPWTFGQGTKVEIKR
notes: Tested as monovalent Fab
**Q.** B2 was tested. Which “KD 7.4/6 (APBP)” value (monomeric human CTLA-4 [4]) did it give?
**A.** > 28

**Q.** And the Kd (monomeric human CTLA-4 [5])?
**A.** > 1000 nM

**Q.** And the Kd (monomeric human CTLA-4 [6])?
**A.** 36 nM

**Q.** And the kon (monomeric human CTLA-4 [6])?
**A.** 1.9e+06 M⁻¹ s⁻¹

**Q.** What about the “t1/2” value (monomeric human CTLA-4 [6]) of the same binder?
**A.** 10 s

B3: ipi.106 Fab (Fab, V domains shown)
VH: QVQLVESGGGVVQPGRSLRLSCAASGFTFSHYTMHWVRQAPGKGLEWVTFISYDGHNKYYADSVKGRFTISRDNSKNTLYLQMNSLRAEDTAIYYCARHGWLGPFDYWGQGTLVTVSS
VL: EIVLTQSPGTLSLSPGERATLSCRASQEVGESELAWYQQKPGQAPRLLIYGAFSRATGIPDRFSGSGSGTDFTLTISRLEPEDFAVYYCQQYGSSPWTFGQGTKVEIKR
notes: Tested as monovalent Fab
**Q.** How did the “KD 7.4/6 (APBP)” value (monomeric human CTLA-4 [4]) turn out when B3 was run?
**A.** > 20

**Q.** And the “EC50 (read off the curve)” value [7]?
**A.** ~3 µg/mL

**Q.** Does B3 bind (monomeric cyno CTLA-4 [8])?
**A.** binds

**Q.** What about the Kd (monomeric human CTLA-4 [9]) of the same binder?
**A.** > 350 nM

**Q.** What about the Kd (monomeric human CTLA-4 [6]) of the same binder?
**A.** 18 nM

**Q.** And the kon (monomeric human CTLA-4 [6])?
**A.** 1.2e+06 M⁻¹ s⁻¹

**Q.** And the “t1/2” value (monomeric human CTLA-4 [6])?
**A.** 33 s

B4: ipi.101, non-fucosylated IgG1 (antibody, V domains shown)
VH: QVQLVESGGGVVQPGRSLRLSCAASGFTFSHYTMHWVRQAPGKGLEWVTFISYDGHNKYYADSVKGRFTISRDNSKNTLYLQMNSLRAEDTAIYYCARTGWLGPFDYWGQGTLVTVSS
VL: not shown
modifications: non-fucosylated N-linked glycan
notes: Non-fucosylated full-length human IgG1; also called Ipi.101 IgG1-NF
**Q.** What does the source list for B4?
**A.** IC50 (read off the curve), mIL-2 secretion, 58αβ-hCTLA/mCD3ζ:rhB7-1 blocking assay, 18 h, pH 7.2 [10]: ~1 nM; Cmax (MFI) [11]: 121000 MFI; EC50 [11]: 3.52 nM; Cmax (MFI) [12]: 126000 MFI; EC50 [12]: 4.06 nM; IC50 (read off the curve), mIL-2 secretion, 58αβ-hCTLA/mCD3ζ:rhB7-1 blocking assay, 18 h, pH 7.0 [13]: ~1 nM; IC50 (read off the curve), mIL-2 secretion, 58αβ-hCTLA/mCD3ζ:rhB7-1 blocking assay, 18 h, pH 6.8 [14]: ~0.7 nM; Cmax (MFI) [15]: 124000 MFI; EC50 [15]: 3.81 nM

B5: ipi.95 (full-length IgG) (antibody, V domains shown)
VH: QVQLVESGGGVVQPGRSLRLSCAASGFTFSHYTMHWVRQAPGKGLEWVTFISYDGHNKYYADSVKGRFTISRDNSKNTLYLQMNSLRAEDTAIYYCARTGWLGPFDYWGQGTLVTVSS
VL: EIVLTQSPGTLSLSPGERATLSCRASQEVGDSELAWYQQKPGQAPRLLIYGAFSRATGIPDRFSGSGSGTDFTLTISRLEPEDFAVYYCQQYGSSPWTFGQGTKVEIKR
notes: as for B1
**Q.** With B5 as the binder, how does the “EC50 (read off the curve)” value [1] read?
**A.** ~1 nM

**Q.** What about the “EC50 (read off the curve)” value [3] of the same binder?
**A.** ~1 nM

B6: ipi.64 Fab (Fab, V domains shown)
VH: QVQLVESGGGVVQPGRSLRLSCAASGFTFSHYTMHWVRQAPGKGLEWVTFISYDGNNKYYADSVKGRFTISRDNSKNTLYLQMNSLRAEDTAIYYCARTGWLGPFDYWGQGTLVTVSS
VL: not shown
notes: Tested as monovalent Fab; also called IPI.64 mutant fab; LCDR1 S28E/S31D and HCDR1 S31H
**Q.** Which results are given for B6?
**A.** binding result (monomeric cyno CTLA-4 [16]): binds; KD 7.4/6 (APBP) (monomeric human CTLA-4 [4]): 13; ka 6/7.4 (monomeric human CTLA-4 [4]): 1.8; t1/2 6/7.4 (monomeric human CTLA-4 [4]): 7.6; CAPBP (ratio of KD normalized to ipilimumab) (monomeric human CTLA-4 [17]): 27.2; Kd (monomeric human CTLA-4 [9]): 37 nM; kon (monomeric human CTLA-4 [9]): 780000 M⁻¹ s⁻¹; t1/2 (monomeric human CTLA-4 [9]): 25 s; Kd (monomeric human CTLA-4 [6]): 2.7 nM; kon (monomeric human CTLA-4 [6]): 1.4e+06 M⁻¹ s⁻¹; t1/2 (monomeric human CTLA-4 [6]): 182 s

B7: ipi.100 Fab (Fab, V domains shown)
VH: QVQLVESGGGVVQPGRSLRLSCAASGFTFSHYTMHWVRQAPGKGLEWVTFISYDGNNKYYADSVKGRFTISRDNSKNTLYLQMNSLRAEDTAIYYCARTGWLGPFDYWGQGTLVTVSS
VL: not shown
notes: Tested as monovalent Fab
**Q.** Does B7 bind (monomeric cyno CTLA-4 [16])?
**A.** binds

**Q.** And the “EC50 (read off the curve)” value [18]?
**A.** ~0.1 µg/mL

**Q.** What about the “KD 7.4/6 (APBP)” value (monomeric human CTLA-4 [4]) of the same binder?
**A.** 17

**Q.** What about the “ka 6/7.4” value (monomeric human CTLA-4 [4]) of the same binder?
**A.** 2.1

**Q.** What about the “t1/2 6/7.4” value (monomeric human CTLA-4 [4]) of the same binder?
**A.** 8.8

**Q.** And the Kd (monomeric human CTLA-4 [9])?
**A.** 46 nM

**Q.** And the kon (monomeric human CTLA-4 [9])?
**A.** 460000 M⁻¹ s⁻¹

**Q.** What about the “t1/2” value (monomeric human CTLA-4 [9]) of the same binder?
**A.** 33 s

**Q.** And the Kd (monomeric human CTLA-4 [6])?
**A.** 2.5 nM

**Q.** And the kon (monomeric human CTLA-4 [6])?
**A.** 940000 M⁻¹ s⁻¹

**Q.** And the “t1/2” value (monomeric human CTLA-4 [6])?
**A.** 289 s
